Experimental data as given in PMC8655031, “Loss of peptidase D binding restores the tumor suppressor functions of oncogenic p53 mutants” (Communications Biology, 2021).

Assays:
[1] = biological target: the molecule itself; assay: cross-linking; PEPD (801 nM) and p53 or p53^R175H (114 nM), alone or together, in PBS pH 7.4 for 15 min at RT, then 2 mM BS3 for 30 min at RT; WB on 5% SDS-PAGE
[2] = biological target: T1, recombinant human p53, N-terminal His tagged (human, UniProt P04637 1-393); assay: as above; conditions: both partners purified
T1 construct: human p53 from pET15b-His-human p53; also called His-human p53; source: E. coli BL21-AI, purified (Ni-NTA)

B1: recombinant human PEPD (peptidase D), C-terminal His tagged (enzyme, UniProt P12955 1-493, looked up)
chain: MAAATGPSFWLGNETLKVPLALFALNRQRLCERLRKNPAVQAGSIVVLQGGEETQRYCTDTGVLFRQESFFHWAFGVTEPGCYGVIDVDTGKSTLFVPRLPASHATWMGKIHSKEHFKEKYAVDDVQYVDEIASVLTSQKPSVLLTLRGVNTDSGSVCREASFDGISKFEVNNTILHPEIVECRVFKTDMELEVLRYTNKISSEAHREVMKAVKVGMKEYELESLFEHYCYSRGGMRHSSYTCICGSGENSAVLHYGHAGAPNDRTIQNGDMCLFDMGGEYYCFASDITCSFPANGKFTADQKAVYEAVLRSSRAVMGAMKPGVWWPDMHRLADRIHLEELAHMGILSGSVDAMVQAHLGAVFMPHGLGHFLGIDVHDVGGYPEGVERIDEPGLRSLRTARHLQPGMVLTVEPGIYFIDHLLDEALADPARASFLNREVLQRFRGFGGVRIEEDVVVTDSGIELLTCVPRTVEEIEACMAGCDKAFTPFSGPK
notes: human peptidase D (PEPD, prolidase), from pBAD/TOPO-human PEPD-His; the discussion speaks of PEPD as 493 aa; also called prolidase; PEPD-His; source: E. coli One Shot TOP10, purified (Ni-NTA)
[1]
  stoichiometry N: 2
[2]
  stoichiometry N: 1 PEPD dimer per p53 tetramer
